Laboratory results reported in US7667021 (dated 2010).

Experiments:
[1] = molecular target: IGFR1 (human); assay: SPR, 25C
[2] = molecular target: IGFR1 (human); assay: SPR, 37C

IGFR1 (human), sequence (B1B5Y2 whole entry): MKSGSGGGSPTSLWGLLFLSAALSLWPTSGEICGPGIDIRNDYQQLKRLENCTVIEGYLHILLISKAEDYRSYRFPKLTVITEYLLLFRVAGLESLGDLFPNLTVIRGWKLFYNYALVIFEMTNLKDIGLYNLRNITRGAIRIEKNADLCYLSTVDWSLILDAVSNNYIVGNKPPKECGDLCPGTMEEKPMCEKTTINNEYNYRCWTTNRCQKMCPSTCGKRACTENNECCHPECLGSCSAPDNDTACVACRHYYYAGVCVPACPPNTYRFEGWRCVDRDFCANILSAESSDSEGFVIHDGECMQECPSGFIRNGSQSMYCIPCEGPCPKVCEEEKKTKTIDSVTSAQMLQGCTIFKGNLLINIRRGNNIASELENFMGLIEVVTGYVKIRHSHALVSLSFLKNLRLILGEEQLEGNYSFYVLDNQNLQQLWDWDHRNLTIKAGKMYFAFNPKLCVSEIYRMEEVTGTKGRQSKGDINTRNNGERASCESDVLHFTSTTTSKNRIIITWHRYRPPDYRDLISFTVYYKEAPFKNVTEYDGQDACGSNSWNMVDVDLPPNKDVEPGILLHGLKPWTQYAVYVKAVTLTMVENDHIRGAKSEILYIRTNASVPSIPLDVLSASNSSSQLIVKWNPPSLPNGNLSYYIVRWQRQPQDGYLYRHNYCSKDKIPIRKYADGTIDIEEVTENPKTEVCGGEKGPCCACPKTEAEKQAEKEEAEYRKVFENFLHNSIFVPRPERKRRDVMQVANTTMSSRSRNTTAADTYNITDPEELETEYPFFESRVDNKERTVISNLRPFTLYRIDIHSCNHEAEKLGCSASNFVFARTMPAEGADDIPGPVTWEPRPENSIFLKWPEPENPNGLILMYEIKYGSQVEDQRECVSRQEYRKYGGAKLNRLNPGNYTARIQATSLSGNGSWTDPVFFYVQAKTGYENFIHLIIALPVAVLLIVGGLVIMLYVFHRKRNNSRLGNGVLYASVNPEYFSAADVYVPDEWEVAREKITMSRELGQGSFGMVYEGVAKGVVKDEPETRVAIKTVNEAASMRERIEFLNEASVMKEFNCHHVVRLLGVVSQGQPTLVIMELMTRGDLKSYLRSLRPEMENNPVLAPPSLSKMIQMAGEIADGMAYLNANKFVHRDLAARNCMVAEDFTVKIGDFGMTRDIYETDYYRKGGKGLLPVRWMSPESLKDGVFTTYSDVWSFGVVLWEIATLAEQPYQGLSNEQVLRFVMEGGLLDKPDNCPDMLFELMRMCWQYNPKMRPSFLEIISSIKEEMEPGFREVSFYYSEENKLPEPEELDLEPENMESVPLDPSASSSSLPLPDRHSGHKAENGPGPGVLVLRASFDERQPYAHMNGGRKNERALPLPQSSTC

| Kd [1] | Kd [2] | Binder |
| --- | --- | --- |
| 0.0592 nM | 0.0722 nM | 19D12 (antibody, V domains shown) VH: EVQLVQSGGGLVHPGGSLRLSCAASGFTFSSFAMHWVRQAPGKGLEWISVIDTRGATYYADSVKGRFTISRDNAKNSLYLQMNSLRAEDMAVYYCARLGNFYYGMDVWGQGTTVTVSS VL: EIVLTQVPDFQSVTPKEKVTITCRASQSIGSSLHWYQQKPDQSPKLLIKYASQSLSGVPSRFSGSGSGTDFTLTINSLEAEDAAAYYCHQSSRLPHTFGGGTKVEIKR |
| 0.0448 nM | 0.0557 nM | 15H12 (antibody, V domains shown) VH: EVQLVQSGGGLVHPGGSLRLSCAASGFTFSSFAMHWVRQAPGKGLEWISVIDTRGATYYADSVKGRFTISRDNAKNSLYLQMNSLRAEDMAVYYCARLGNFYYGMDVWGQGTTVTVSS VL: EIVLTQVPDFQSVTPKEKVTITCRASQSIGSSLHWYQQKPDQSPKLLIKYASQSLSGVPSRFSGSGSGTDFTLTINSLEAEDAAAYYCHQSSRLPHTFGGGTKVEIKR |
| 0.86 nM |  | 1H3 (antibody, V domains shown) VH: EVQLVQSGGGLVLPGGSLRLSCAGSGFTFSNYAMHWIRQAPGKGLEWVSAIGAGGDTYYADSVKGRFTISRDNAKDSLYLQMNSLRAEDMAVYYCARGRHRNWYYYNKDYWGQGTLVTVSS VL: EIVLTQSPATLSLSPGERATLSCRASQSVSSFLAWYQQKPGQAPRLLIYDASNRAPGIPARFSGSGSGTDFTLTISSLEPEDFAVYYCQQRSNWPRWTFGQGTKVEIKR |
